According to the nanobody polyreactivity screen of Harvey et al. (2022):

Test: yeast display, Sf9 membrane polyspecificity reagent, FACS + sequencing; frameworks hold sequencing errors
Outline: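 Polyreactivity labels are assigned by the sorting gate from which each nanobody was recovered. The gates were low and high (top ~1%), set on anti-HA fluorescence for expression and streptavidin fluorescence for reagent binding. Before sorting, galactose-induced (36–48 hours) yeast display cells were stained for 1 hour at 4 °C with 10% biotinylated, detergent-solubilized Sf9 membrane reagent.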
In the case of “QVQLVESGGGLVQAGGSLRLSCAASGSIIRGNAMGWYSQAPGKERELVATITNGGSTNYADSVKGRFTISRDNAKNTVYFQMNSMKPEDTAVYYCNADHSYHIASTRHVDFWGQGTQVTVSS”, the “polyreactivity (PSR sort gate)” value is reported as “low polyreactivity”. With “QVQLVESRGGLVQAGGSLRLSCAASVRTFQKNTMGWYRQAPGKERELVAAIDYSATSTYYADSVKGRFTISRDNAKNTVYLQMNSLKPEDTAVYYCAARWSYPRWEFDYWGQGTQVTVSS” the “polyreactivity (PSR sort gate)” value was “high polyreactivity”. With “QVQLVESGGGLVQAGGSLRLSCAASGFTFTGYAMGWYRQAPGKERELVAVISSRGGSTYYADSVKGRFTISRDNAKNTVYLQMNSLKPEDTAVYYCAARGSKGFSSPFGYWGQGTQVTVSS” the “polyreactivity (PSR sort gate)” value was “high polyreactivity”. For “QVQLVESGGGLVQAGGSLRLSCAASGSTFDYNAKGSYRQAPGKERELVAVISSSGGSTYYADSVKGRFTISRDIAMNTVYLQMNSLKPVDTAVYYCAALYRNYGSSYAYYYWGLGTQVTVSS”, the “polyreactivity (PSR sort gate)” value was “low polyreactivity”. For “PVQLVESGGVLVQAGGSLRLSCAASGFTFWLYAMGWYRQAPGNEREFVAAISPSGGSTYADSVKGRFTLSRDNAKNTVYLPMNRLKPEDTAVYYCNDGYLLYYDYHLFYWGQGTQLTVSS”, the “polyreactivity (PSR sort gate)” value was “low polyreactivity”. With “QVQLVESGGGLVQAGGSLRLSCAASGFIFADYAMGWYRQAPGKERELVAAITRGGITYYADSVKGRFTISRDNAKNTVYLQMNSLKPEDTAVYYCAVDPSPRSYYNYYWGQGTQVTVSS” the “polyreactivity (PSR sort gate)” value was “high polyreactivity”. In the case of “QVQLVESGGGLVQAGGSLRLSCAASGSTFGLNVMGWYRQAPGKEREFVAGISRSGGRTYYADSVKGRFTISRDNAKNTVYLQMNSLKPADTAVYYCAADYWTGITPDAIGDYWGQGTQVTVSS”, the “polyreactivity (PSR sort gate)” value is reported as “low polyreactivity”. For “QVQLVESGGGLVQAGGSLRLSCAASGFIFPYYDMGWYRQAPGTERELVAAISWSGDSTYYADSVKGRFTISRDNAKNTVYLQMNSLKPEDTAVYYCNVRARYQRYYYWGQGTQVTVSS”, the “polyreactivity (PSR sort gate)” value was “high polyreactivity”. In the case of “QVQHVESRGGLVQAGGSLRLSCAASGIIFRYAMGWYRQAPGKERELVAAIRKSDGSTYYADSVKGRFTISRDNAKNTFYLQMNSLKPEDTAVYYCATDIGYGNRKGFYYWGQGSQVTVSS”, the “polyreactivity (PSR sort gate)” value is reported as “high polyreactivity”. With “QVQLVESGGGLVQAGGSLRLSCAASGSIFGGYTMGWYRQAPGKERELVAGITISGGSTYYADSVKGRFTISRDNAKNTVYLQMNSLKPEDTAVYYCAAVSFVVSSWGYGYWGQGTQVTVSS” the “polyreactivity (PSR sort gate)” value was “low polyreactivity”. In the case of “QVQLVESGGGLVQAGGSLRLSCAASGSTFPYNAMGWYRQAPGKERELLAAISWRGGRTYYADSVKGRFTISRDNAKNTVYLQMNSLKPEYTGVFYCAVVLSTYSYADYDYWGQGTHVTVSS”, the “polyreactivity (PSR sort gate)” value is reported as “high polyreactivity”. In the case of “QDQLVESGGGLVQAGGSLRLSCAASGSTFVGNAMGWYRQAPGKERELVAAISRTGGSTYYADSVKGRFTISRDNAKNTVYLQMNSLKPEDTAVYYCAARRYDIRYYYVTYRPPKMYYWGQGTQVTVSS”, the “polyreactivity (PSR sort gate)” value is reported as “high polyreactivity”. In the case of “QVQVVESGGGLVQAGGSLRLSCAASGSIFRDNAMGCYRQAPGKERELVASIRSSGGRTYYADSVKGRFTISRDNAKNTVYLQMNSLKPEDTAVYYCARRWYPVTPYARMYYWGQGTQVTVSS”, the “polyreactivity (PSR sort gate)” value is reported as “low polyreactivity”. With “QVQLVESGGGLVQAGGSLRLSCAASGRIFWYYAMGWYRQAPGKERELVAAITRGGITTYADSVKGRYTISRDNAKNTVYLQMNSLKPEDTAVYYCNAVPWYGRMDYWGQGTQVTVSS” the “polyreactivity (PSR sort gate)” value was “low polyreactivity”. With “QVQLVESGGGVVQAGGSLRLSCAASGRTFRPYAMGWYRQAPGKERELVAAIDSSGTSTYYADSVKGRFTISRDNAKNSVYLQMNSLKPEDTAVYYCAKAWPDHWYSRYDYWGQGTQVTVSS” the “polyreactivity (PSR sort gate)” value was “low polyreactivity”. For “QVQLVESGGGLVQAGGSLRLSCAASGSIFTPYTMGWYRQAPGKERELVAAISWGADSTYYADSVKGRFTISRDNAKNTVYLQMISLKPEDTAVYYCGDDYWGWSNGYEYWGQGTQVTVSS”, the “polyreactivity (PSR sort gate)” value was “low polyreactivity”. In the case of “QVQLVESGGGLVQAGGSLRLSCAASGFTFYTYAMGWYRQAPGKERELVAAITSSGGSTYYADSVKGRFTISRDHAKNTVYLQMNSLKPEDTAVYYCKAVSYYLGDDYWGPGTQVTVSS”, the “polyreactivity (PSR sort gate)” value is reported as “high polyreactivity”. With “QVQLVESGGGLVQAGGSLRLSSAASGITFPWYAMGWSRQAPGKERELVAAISRSGGSTYADSVKGRFTISRDNAKNTVYLQMNSLKPEDTAVYYCAAGTYSGSRFDYWGQGTQVTVSS” the “polyreactivity (PSR sort gate)” value was “high polyreactivity”. With “QVQLEESGGGLVQAGGSLRLSCAASGFIFDYYAMGWYRQAPGKERELVAAISSSGGSTYADSVKGRFTISRDNAKNTVYLQMNSLKPEDTAVYYCAADWYKRPPYDYWGQGTQVTVSS” the “polyreactivity (PSR sort gate)” value was “low polyreactivity”. With “QVQLVESGGGLVQAGGSLRLSCAASGRTFVYYAMGWYRQAPGKERELVARISYSGGSTYYADSVKGRFTISRDNAKKTVYLQMNSLKPEDTAVYYCSQAGYSPVYGYWGQGTQVSVSS” the “polyreactivity (PSR sort gate)” value was “high polyreactivity”. For “QVQHVESGGGLVQAGGSLRLSCAASGRTITLNAMGWYRQAPGKERELVAAITWGAGSTYYADSVKGRFTISRDNAKNTVYLQMNSLKPEDTAVYYCAARFHGAYYRYRSPSMYYWGQGTQVTVSS”, the “polyreactivity (PSR sort gate)” value was “high polyreactivity”. For “QVQLVESGGGLVQAGGSLRLSCAASGRIFYWYDMGWYRQAPGKERELVAAISTRGGSTYYADSVKGRFTISRDNAKNTVYLQMNSLKPEDTAVYYCAARANPYVLKYYYWGQGTQVTVSS”, the “polyreactivity (PSR sort gate)” value was “high polyreactivity”. For “KVQLVESGGGLVQAGGSLRLSCAASGFTLGYYAMGWYRQEPGKEREMVAAITSGGGTNYADSVKGRFTISRDNAKNTVYLQMNSLKPEDSAVYYCAARARWIYGMYSWGQGTQVTLSS”, the “polyreactivity (PSR sort gate)” value was “low polyreactivity”. For “QVQLVESGGGLVQAGGSLRLSCAASGRTFRANTMGWYRQAPGKERELVAAISHSGGSTYYADSVKGRFTISRDNAKYTVYLQMISLKPEDTAVYYCATDGGSYSWASPRVDYWGQGTQVTVSS”, the “polyreactivity (PSR sort gate)” value was “low polyreactivity”. For “QVQLVESGGGLVQAGGSLRLSCAASGRIFPYYAMGWYRQAPGKERELVATITSGGSTYYADSVKGRFTISRDNAKNTVYLQMNSLKPEDTAVYYCAARYPSIYYYRYDYWGQGTQVTVSS”, the “polyreactivity (PSR sort gate)” value was “high polyreactivity”. For “QVQLVESGGGLVQAGGSLRLSCAASGLIFYRNAMGWYRQAPGKERELVAGITRGSNTYYADSVKGRFTISRVNAKNTVYLQMNSLKPEDTAVYYCAAQVPVLQRAGNTRFGYWGQGTQVTVSS”, the “polyreactivity (PSR sort gate)” value was “low polyreactivity”. For “QVQLVESGGGLVQAGGSLRLSCAASGSTFLVNAKGWYRQAPGKEWEFVAAITGNAGSTYYADSVKGRFTISRDNEKYTVYLQMNSLKPEDTAVYYCAAALPGYDGDYWGQGTQVTVSS”, the “polyreactivity (PSR sort gate)” value was “low polyreactivity”. In the case of “QVQLVESGGGLDQAGGSLRLSFAASGLIFAVYAMGWYRQAPGKERELVAGISASAASTYYADSVKGRFTISRDNAKNTVYLQMNSLKPEDTAVYYCAAGFYRRGKYDYWGQGTQVTVSS”, the “polyreactivity (PSR sort gate)” value is reported as “high polyreactivity”. With “QVQLVESGGGLVQAGGSLRLSCAASGSTFVDYDMGWYRQAPGKERELVAAITYSGARTYYADSVKGRFTISRDNAKNTVYLQMNSLKPEDTAVYYCNADQRTASDQLEFDYWGQGTQVTVSS” the “polyreactivity (PSR sort gate)” value was “low polyreactivity”. With “QVQLVESGGGLVQAGGSLRLSCAASGIIFIHYAMGWYRQAPGKERELVAAITSGGSTNYADSVKGRFTISRDNAKNTVYLQMNSLKPEDTAVYYCNAEPVASYYRVSDYEYWGQGTQVTVSS” the “polyreactivity (PSR sort gate)” value was “low polyreactivity”. With “QVQLVESGGGLVQAGASLRLSCDASGLTFGYYAMGWYRQAPGKERELVAAINRSGNTNYADSVKGRFTISRDNAKNTVYLQMNSLKPEDTAVYYCAKRIWSILSPYKSSYGYDYWGQGTQVTVSS” the “polyreactivity (PSR sort gate)” value was “low polyreactivity”. In the case of “QVQLVESGGGLVQAGGSLRLICAASGIILGHKAMGWYRQAPGKERELVATITTRGGSTYYADSVKGRFTISRDNAKNTVYLQMNSLKPEDTAVFYCAARPYKSLHYWYDYWGQGTQVTVSS”, the “polyreactivity (PSR sort gate)” value is reported as “low polyreactivity”. For “QVQHVESGRGLVQAGGSLRLSCAASGSTFDYNALGWSRQAPGKERELVARISSSGGITDYADSVKGRFTISRDNAKNTVYLHMNSLKPDDTAVNYCARVGKSGAVTAETRRWYYYWGQGTQVTVSS”, the “polyreactivity (PSR sort gate)” value was “low polyreactivity”. With “QVQLVESGGGLVQAGGSLRLSCAASGRIFRGYAMGWYRQAPGKERELVAAISASGGSTYYADSVKGRFTISRDNAKNTVYLQMNSLKPEDTAVYYCATTIFYTYYGLYDYWGQGTQVTVSS” the “polyreactivity (PSR sort gate)” value was “high polyreactivity”. With “QVQLVESGGGLVQAGGSLRLSSAASGSIFRGYAMGWYRQAPEKERELVAAISRRGGSTYYADSVKGRFTISRDNAKNTVYLQMNSLKPEDTAVYYCAKDGTGAGTYDYWGLGTQVTVSS” the “polyreactivity (PSR sort gate)” value was “low polyreactivity”. For “QVQLVESGGGLVQAGGSLRLSCAASGSYLRYYAMGWYRQAPGKERELVAAISRSGTNTYYADSVKGRFTISRDNAKNTVYLQMNSLKPEDTAVYYCAARSWKRRVGRDYWGQGTQVTVSS”, the “polyreactivity (PSR sort gate)” value was “high polyreactivity”. For “QVQLVESGGVLVQAGGSLRLSCAASGSIFVPYAMGWYRQAPGKERELVAAISSGGSTNYADSVKGRFTISRDNAKNTVYLLMNSLKPEDTAVYYCAADRKYFYLWLDQEHRYYWGQGYQVTVSS”, the “polyreactivity (PSR sort gate)” value was “low polyreactivity”. With “QVQLVESGGGLVQAGGSLRISCAASGRNYSYYAMGWYREAPGKERELVAAITYSGGSTYYADSVKGRFTITRDNAKNTVYLQMNSLKPEDTAVYYCAAGLSIYYWGQGTQVTVSS” the “polyreactivity (PSR sort gate)” value was “low polyreactivity”. In the case of “QDQLVESGGGLVQAGGSLRLICAASGMGWFRQAPGKEREFVAVIRWSSGSTYYADSVKGRFTISRDNAKNTVYLQMNSLKPEDTAVYYCAAGGYPSLLHDYDYWGQGTQVTVSS”, the “polyreactivity (PSR sort gate)” value is reported as “low polyreactivity”. With “QFQLVDSGGGLVQAGGSLRLSCAASGRTFWFYGMGWYRQAPGKEREFVARISGSGGSKYYADSVKGRFTITRDNAKNTVYFQMNSLKPEDTAVYYCAKDNRYPYPSGLDYWGQGTQVTVSS” the “polyreactivity (PSR sort gate)” value was “high polyreactivity”. With “QVQLVESGGGLVQAGGSLLLSCAAYGSISPYYTMGLYRQAPGKERELVAAICSGGRTYYADSVKGRFTISRDNAKNTVYLHMNSLNPEDTSVYYCAVEVAWYVHWGDMDYWGQGTQVTVSS” the “polyreactivity (PSR sort gate)” value was “low polyreactivity”. With “QVQLVESGGGLVQAGGSLRFRCAASGRIFSYVMGWYRQAPGKERELVAAISTGGGNTYYADSVKGRFTISRDNAKNTVYLQMNSLKPEDTAVYYCAADYYAGTFDYWGQGTQVTVSS” the “polyreactivity (PSR sort gate)” value was “high polyreactivity”. With “QVLLVESGGGLVQAAGSLRLSCAASGSISIGYTMGWYIQAPGKERELVATISWSGGNTYYADSVKWRFTISRDNAKNTVYLQMNRLKPEDTAVYYCAAKSSTRGDYWGQGTQVTVSS” the “polyreactivity (PSR sort gate)” value was “low polyreactivity”.
